Results on 2 molecules are retold here after patent US20230114801A1 (SYSTIMMUNE, published 2023).

One may read the Kd as a measure of binding affinity in units of concentration. A lower Kd goes with higher affinity.

The target of one experiment is T1, human 4-1BB (human, UniProt Q07011 24-186, limits assumed).
T1 construct: Soluble antigen in Octet; construct not described
The experiment can be described thus: BLI (Octet), binder on AHC sensor; antigen conditions not stated.

The target of a further experiment is T2, human PD-L1 (human, UniProt Q9NZQ7 19-238).
T2 construct: Soluble antigen in Octet; bought; also called human PD-L1 (Acro PD1-H5229)
The description is as above.

A further experiment has as its target T3, CD19 (UniProt P15391 20-291, limits assumed).
T3 sequence (looked up): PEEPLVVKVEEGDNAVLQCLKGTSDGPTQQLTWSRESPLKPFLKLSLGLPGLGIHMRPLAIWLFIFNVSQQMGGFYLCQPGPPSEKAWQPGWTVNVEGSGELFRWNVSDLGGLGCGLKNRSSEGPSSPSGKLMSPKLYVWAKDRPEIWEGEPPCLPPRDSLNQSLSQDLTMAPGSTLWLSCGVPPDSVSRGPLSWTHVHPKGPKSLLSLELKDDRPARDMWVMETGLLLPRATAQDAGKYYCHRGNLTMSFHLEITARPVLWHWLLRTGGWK
The experiment is described as above.

For the next experiment, the target named is T4, human CD3 (human, UniProt P07766 23-126; P04234 22-105).
T4 construct: also called His-tagged human CD3; human CD3 (Acro CDD-H52W1)
The experiment can be described thus: BLI (Octet), binder on AHC sensor, His-tagged human CD3 (series from 200 nM or single 100 nM), 1:1 fit. Background: Biolayer interferometry detects binding as a change in optical thickness at a sensor tip.

B1: SI-68P13 (other)
chain 1: EIVLTQSPSTLSVSPGERATFSCRASQSIGTNIHWYQQKPGKPPRLLIKYASESISGIPDRFSGSGSGTEFTLTISSVQSEDFAVYYCQQNNNWPTTFGPGTKLTVLGGGGSGGGGSGGGGSGGGGSQVQLQQSGPGLVKPSETLSITCTVSGFSLTNYGVHWIRQAPGKGLEWLGVIWSGGNTDYNTPFTSRFTITKDNSKNQVYFKLRSVRADDTAIYYCARALTYYDYEFAYWGQGTLVTVSSGGGGSGGGGSEVQLVESGGGLVQPGGSLRLSCAASGFTISTNAMSWVRQAPGKGLEWIGVITGRDITYYASWAKGRFTISRDNSKNTLYLQMNSLRAEDTAVYYCARDGGSSAITSNNIWGQGTLVTVSSASTKGPSVFPLAPSSKSTSGGTAALGCLVKDYFPEPVTVSWNSGALTSGVHTFPAVLQSSGLYSLSSVVTVPSSSLGTQTYICNVNHKPSNTKVDKRVEPKSCDKTHTCPPCPAPEAAGGPSVFLFPPKPKDTLMISRTPEVTCVVVDVSHEDPEVKFNWYVDGVEVHNAKTKPREEQYNSTYRVVSVLTVLHQDWLNGKEYKCAVSNKALPAPIEKTISKAKGQPREPQVYTLPPSRDELTKNQVSLSCAVKGFYPSDIAVEWESNGQPENNYKTTPPVLDSDGSFFLVSKLTVDKSRWQQGNVFSCSVMHEALHNHYTQKSLSLSPGGGGGSGGGGSDVVMTQSPSSVSASVGDRVTITCQASQNIRTYLSWYQQKPGKAPKLLIYAAANLASGVPSRFSGSGSGTDFTLTISDLEPGDAATYYCQSTYLGTDYVGGAFGGGTKLTVLGGGGSGGGGSGGGGSGGGGSEVQLVESGGGLVQPGGSLRLSCTASGFTISSYHMQWVRQAPGKGLEYIGTISSGGNVYYASSARGRFTISRPSSKNTVDLQMNSLRAEDTAVYYCARDSGYSDPMWGQGTLVTVSS
chain 2: ENVLTQSPASLSASPGERVTITCSASSSVSYMHWYQQKPGQAPKLWIYDTSKLASGVPSRFSGSGSGNDHTLTISSMEPEDFATYYCFQGSVYPFTFGQGTKVTVLGGGGSGGGGSGGGGSGGGGSQVTLKESGPGLVQPGQTLSLTCAFSGFSLSTSGMGVGWIRQPPGKGLEWLAHIWWDDDKRYNPALKSRLTISKDTSKNQVYLQMNSLDAEDTAVYYCARMELWSYYFDYWGQGTLVTVSSGGGGSGGGGSDVVMTQSPSTLSASVGDRVTINCQASESISSWLAWYQQKPGKAPKLLIYEASKLASGVPSRFSGSGSGTEFTLTISSLQPDDFATYYCQGYFYFISRTYVNSFGGGTKVEIKRTVAAPSVFIFPPSDEQLKSGTASVVCLLNNFYPREAKVQWKVDNALQSGNSQESVTEQDSKDSTYSLSSTLTLSKADYEKHKVYACEVTHQGLSSPVTKSFNRGECGGDKTHTCPPCPAPEAAGGPSVFLFPPKPKDTLMISRTPEVTCVVVDVSHEDPEVKFNWYVDGVEVHNAKTKPREEQYNSTYRVVSVLTVLHQDWLNGKEYKCAVSNKALPAPIEKTISKAKGQPREPQVYTLPPSRDELTKNQVSLWCLVKGFYPSDIAVEWESNGQPENNYKTTPPVLDSDGSFFLYSKLTVDKSRWQQGNVFSCSVMHEALHNRFTQKSLSLSPGGGGGSGGGGSDIQMTQSPSTLSASVGDRVTITCQASQSISSHLNWYQQKPGKAPKLLIYKASTLASGVPSRFSGSGSGTEFTLTISSLQPDDFATYYCQQGYSWGNVDNVFGGGTKVTVLGGGGSGGGGSGGGGSGGGGSEVQLLESGGGLVQPGGSLSLSCAASGFSFSSGYDMCWVRQAPGKGLEWIACIAAGSAGITYDANWAKGRFTISRDNSKNTLYLQMNSLRAEDTAVYYCARSAFSFDYAMDLWGQGTLVTVSS
notes: penta-miniGNC; D1 αEGFR, D2 αCD19, D3 αCD3 (Fab), D4 α4-1BB, D5 αPD-L1
In the case of B1, the Kd with human 4-1BB was 14.8 nM; in the experiment with human PD-L1, 1.04 nM; with CD19, 4.33 nM; with human CD3 it was 25.9 nM.

B2: SI-68P15 (other)
chain 1: EIVMTQSPSTLSASVGDRVIITCQASESISSWLAWYQQKPGKAPKLLIYEASKLASGVPSRFSGSGSGAEFTLTISSLQPDDFATYYCQGYFYFISRTYVNSFGQGTKLTVLGGGGSGGGGSGGGGSGGGGSEVQLVESGGGLVQPGGSLRLSCAASGFTISTNAMSWVRQAPGKGLEWVGVITGRDITYYASWAKGRFTISRDTSKNTVYLQMNSLRAEDTAVYYCARDGGSSAITSNNIWGQGTLVTVSSGGGGSGGGGSQVQLQQSGPGLVKPSETLSITCTVSGFSLTNYGVHWIRQAPGKGLEWLGVIWSGGNTDYNTPFTSRFTITKDNSKNQVYFKLRSVRADDTAIYYCARALTYYDYEFAYWGQGTLVTVSSASTKGPSVFPLAPSSKSTSGGTAALGCLVKDYFPEPVTVSWNSGALTSGVHTFPAVLQSSGLYSLSSVVTVPSSSLGTQTYICNVNHKPSNTKVDKRVEPKSCDKTHTCPPCPAPEAAGGPSVFLFPPKPKDTLMISRTPEVTCVVVDVSHEDPEVKFNWYVDGVEVHNAKTKPREEQYNSTYRVVSVLTVLHQDWLNGKEYKCAVSNKALPAPIEKTISKAKGQPREPQVYTLPPSRDELTKNQVSLSCAVKGFYPSDIAVEWESNGQPENNYKTTPPVLDSDGSFFLVSKLTVDKSRWQQGNVFSCSVMHEALHNHYTQKSLSLSPGGGGGSGGGGSDVVMTQSPSSVSASVGDRVTITCQASQNIRTYLSWYQQKPGKAPKLLIYAAANLASGVPSRFSGSGSGTDFTLTISDLEPGDAATYYCQSTYLGTDYVGGAFGGGTKLTVLGGGGSGGGGSGGGGSGGGGSEVQLVESGGGLVQPGGSLRLSCTASGFTISSYHMQWVRQAPGKGLEYIGTISSGGNVYYASSARGRFTISRPSSKNTVDLQMNSLRAEDTAVYYCARDSGYSDPMWGQGTLVTVSS
chain 2: ENVLTQSPASLSASPGERVTITCSASSSVSYMHWYQQKPGQAPKLWIYDTSKLASGVPSRFSGSGSGNDHTLTISSMEPEDFATYYCFQGSVYPFTFGQGTKVTVLGGGGSGGGGSGGGGSGGGGSQVTLKESGPGLVQPGQTLSLTCAFSGFSLSTSGMGVGWIRQPPGKGLEWLAHIWWDDDKRYNPALKSRLTISKDTSKNQVYLQMNSLDAEDTAVYYCARMELWSYYFDYWGQGTLVTVSSGGGGSGGGGSEIVLTQSPSTLSVSPGERATFSCRASQSIGTNIHWYQQKPGKPPRLLIKYASESISGIPDRFSGSGSGTEFTLTISSVQSEDFAVYYCQQNNNWPTTFGPGTKLTVLRTVAAPSVFIFPPSDEQLKSGTASVVCLLNNFYPREAKVQWKVDNALQSGNSQESVTEQDSKDSTYSLSSTLTLSKADYEKHKVYACEVTHQGLSSPVTKSFNRGECGGDKTHTCPPCPAPEAAGGPSVFLFPPKPKDTLMISRTPEVTCVVVDVSHEDPEVKFNWYVDGVEVHNAKTKPREEQYNSTYRVVSVLTVLHQDWLNGKEYKCAVSNKALPAPIEKTISKAKGQPREPQVYTLPPSRDELTKNQVSLWCLVKGFYPSDIAVEWESNGQPENNYKTTPPVLDSDGSFFLYSKLTVDKSRWQQGNVFSCSVMHEALHNRFTQKSLSLSPGGGGGSGGGGSDIQMTQSPSTLSASVGDRVTITCQASQSISSHLNWYQQKPGKAPKLLIYKASTLASGVPSRFSGSGSGTEFTLTISSLQPDDFATYYCQQGYSWGNVDNVFGGGTKVTVLGGGGSGGGGSGGGGSGGGGSEVQLLESGGGLVQPGGSLSLSCAASGFSFSSGYDMCWVRQAPGKGLEWIACIAAGSAGITYDANWAKGRFTISRDNSKNTLYLQMNSLRAEDTAVYYCARSAFSFDYAMDLWGQGTLVTVSS
notes: penta-miniGNC; D1 αCD3** (humanized framework 1), D2 αCD19, D3 αEGFR (Fab), D4 α4-1BB, D5 αPD-L1
With B2, the Kd with human 4-1BB came to 17.1 nM; with human PD-L1, 0.4 nM; with human CD3, 22.4 nM.
